Values after ≈ are worked out from the molar mass of the structure shown.
Key:
O=C(O)CCCO = test: acyl-CoA ligase activity of mutant Msed_1353-G424, discontinuous DTNB assay; type: biochemical, Metallosphaera sedula; conditions: other: Msed_1353-G424, 75° C., pH 7.9
From the text: In one embodiment, an example of a polypeptide having 4-hydroxybutyrate:CoA ligase activity is an amino acid sequence encoded by coding sequence Msed_1353 of Genbank accession NC_009440 and disclosed at SEQ ID NO:18, provided that the amino acid at residue 424 is not the tryptophan present in a wild type Msed_1353. In one embodiment, the amino acid at residue 424 is alanine, valine, leucine, isoleucine, or glycine. In one embodiment, the amino acid at residue 424 is alanine, valine, leucine, glycine. In one embodiment, the amino acid at residue 424 is glycine. The amino acid sequence disclosed at SEQ ID NO:18 includes the substitution of glycine for tryptophan. Another example is a polypeptide having structural similarity to the amino acid sequence SEQ ID NO:18, provided the amino acid at residue 424 is not tryptophan.
Two assays were used to measure ligase activity, one spectrophotometric and one using high-performance liquid chromatography (HPLC). A discontinuous assay was used to measure substrate-dependent disappearance of CoA at 75° C. The reaction mixture (600 μl) contained 100 mM MOPS-KOH (pH 7.9), 5 mM MgCl2, 2.5 mM ATP, 0.15 mM CoA, and purified enzyme. At each time point, 80 μl of reaction mixture was added to 80 μl cold 5,5′-dithiobis-(2-nitrobenzoic acid) (DTNB). A time point (0 min) was taken before heating. The reaction mixture was incubated for 2 min at 75° C., followed by addition of substrate. Additional time points were taken at 30, 60, 90, 120, and 180 sec after addition of substrate. Absorbance was measured at 412 nm to determine free CoA concentration, based on the concentration of 2-nitro-5-thiobenzoate dianion (NTB^2−) (ε412=14,150 M^−1 cm^−1) (Hawkins et al., 2011, ACS Catal. 1, 1043-1050, Riddles et al., 1983, Methods in Enzymology 91, 49-60). Enzymes were kinetically characterized by varying the concentration of the […] substrate from 0.05 mM to 12 mM, while the other substrate concentrations were held constant. Measurements for specific activity were taken under saturating substrate concentrations (10 mM). Formation of the CoA ester was also confirmed using HPLC (Waters). The reaction mixture (0.15 ml) contained 100 mM potassium phosphate (pH 7.9), 10 mM MgCl2, 2 mM ATP, 0.5 mM CoA, 10 mM substrate, and purified enzyme. The reaction was incubated for 3 min at 75° C., quenched with 15 μl 1M HCl, filtered with a 10 kDa spin column (Amicon YM-10) to remove the protein, and loaded onto a reversed-phase C18 silica-based column (Shodex C18-4E, 4.6×250 mm). The mobile phase was 50 mM sodium phosphate buffer (pH 6.7) with 2% methanol.
M. sedula genes encoding acyl-CoA synthetases were amplified from genomic DNA using primers synthesized by Integrated DNA Technologies (Coralville, Iowa). […]

[1] = 70° C and 1 atm; cited from earlier work
[2] = tested on: CC(C)(COP(=O)(O)OP(=O)(O)OC[C@H]1O[C@@H](n2cnc3c(N)ncnc32)[C@H](O)[C@@H]1OP(=O)(O)O)[C@@H](O)C(=O)NCCC(=O)NCCSC(=O)CCCO; test: 4-hydroxybutyryl-CoA dehydratase (Msed_1321), coupled spectrophotometric assay; type: biochemical, Metallosphaera sedula; conditions: other: Msed_1321, 70° C.
From the text: A polypeptide having 4-hydroxybutyryl-CoA dehydratase activity means the polypeptide catalyzes the conversion of 4-hydroxybutyryl-CoA to crotonyl-CoA. The 4-hydroxybutyryl-CoA dehydratase activity of a polypeptide may be determined by routine methods known in the art. An example of such a polypeptide includes an amino acid sequence encoded by coding sequence Msed_1321 of Genbank accession NC_009440 and disclosed at SEQ ID NO:15.
Heterologous expression of M. sedula genes in E. coli. Msed_0406, Msed_1321, Msed_0399, and Msed_0656 were amplified from genomic DNA using primers from IDT Technologies (Coralville, Iowa). Msed_0406 was cloned into pET46-Ek/LIC with an N-terminal His6 tag, as described in Example 1. Msed_1321 was cloned with an N-terminal His6 tag into a modified pETA vector, into which the anaerobic hya promoter from E. coli had been inserted to allow for anaerobically-regulated expression (Sun et al., 2010. PLoS One 5:e10526). Msed_0399 was cloned into pET21b without a His-tag, and Msed_0656 was cloned into pCDF-Ek/LIC with an N-terminal His6 tag. All four constructs were individually cloned into NovaBlue GigaSingles E. coli competent cells and selected by growth on LB-agar supplemented with antibiotic. Sequences were confirmed by Eton Biosciences, Inc. (Durham, N.C.). Next, the plasmids were transformed into E. coli Rosetta 2 (DE3) cells for protein expression. Rosetta strains containing pET46-0406, pET21b-0399, and pCDF-0656 were grown and expressed aerobically at 37° C. for 16 h in Studier's auto-inducing medium ZYM-5052 (Studier, 2005. Protein Expression and Purification 41:207-234). Rosetta cells containing pETA-1321 plasmid were grown in a 2 L Applikon bioreactor (37° C., 800 rpm, pH 6.7, 0.5 slpm air) in Studier's non-inducing medium ZYM-505 with 0.5 mM FeCl3. […]
4-hydroxybutyryl-CoA dehydratase (Msed_1321). […] Enzyme activity was measured […] in a coupled spectrophotometric assay at 70° C. […]

[3] = substrate: O=C(O)CCO; test: purified protein, by the assay type; conditions: other: Msed_0406, 75° C., pH 7.9; 75.0 °C
Method: (§1) Two assays were used to measure ligase activity, one spectrophotometric and one using high-performance liquid chromatography (HPLC). A discontinuous assay was used to measure substrate-dependent disappearance of CoA at 75° C. The reaction mixture (600 μl) contained 100 mM MOPS-KOH (pH 7.9), 5 mM MgCl2, 2.5 mM ATP, 0.15 mM CoA, and purified enzyme. At each time point, 80 μl of reaction mixture was added to 80 μl cold 5,5′-dithiobis-(2-nitrobenzoic acid) (DTNB). A time point (0 min) was taken before heating. The reaction mixture was incubated for 2 min at 75° C., followed by addition of substrate. Additional time points were taken at 30, 60, 90, 120, and 180 sec after addition of substrate. Absorbance was measured at 412 nm to determine free CoA concentration, based on the concentration of 2-nitro-5-thiobenzoate dianion (NTB^2−) (ε412=14,150 M^−1 cm^−1) (Hawkins et al., 2011, ACS Catal. 1, 1043-1050, Riddles et al., 1983, Methods in Enzymology 91, 49-60). Enzymes were kinetically characterized by varying the concentration of the acyl-CoA substrate from 0.05 mM to 12 mM, while the other substrate concentrations were held constant. Measurements for specific activity were taken under saturating substrate concentrations (10 mM). Formation of the CoA ester was also confirmed using HPLC (Waters). The reaction mixture (0.15 ml) contained 100 mM potassium phosphate (pH 7.9), 10 mM MgCl2, 2 mM ATP, 0.5 mM CoA, 10 mM substrate, and purified enzyme. The reaction was incubated for 3 min at 75° C., quenched with 15 μl 1M HCl, filtered with a 10 kDa spin column (Amicon YM-10) to remove the protein, and loaded onto a reversed-phase C18 silica-based column (Shodex C18-4E, 4.6×250 mm). The mobile phase was 50 mM sodium phosphate buffer (pH 6.7) with 2% methanol.

[4] = substrate: O=C(O)CCCO; test: purified protein, by the assay type
Method: as §1

[5] = substrate: CCCCC(=O)O; test: purified protein, by the assay type; conditions: other: Msed_0406, 75° C., pH 7.9; 75.0 °C
[6] = substrate: CCC(=O)O; test: purified protein, by the assay type; conditions: other: Msed_0406, 75° C., pH 7.9; 75.0 °C
[7] = substrate: CCCC(=O)O; test: purified protein, by the assay type; conditions: other: Msed_0406, 75° C., pH 7.9; 75.0 °C
Method: as §1

[8] = substrate: CC(=O)O; test: purified protein, by the assay type; conditions: other: Msed_0406, 75° C., pH 7.9; 75.0 °C
[9] = 4-hydroxybutyrate-CoA synthetase assay (DTNB; HPLC confirmation); type: biochemical
Method: A time point (0 min) was taken before heating.
The soluble, heat-treated lysate was loaded onto the column with binding buffer (50 mM sodium phosphate, 300 mM NaCl, 20 mM imidazole, pH 7.4) and the his-tagged enzyme removed with elution buffer (50 mM sodium phosphate, 300 mM NaCl, 500 mM imidazole, pH 7.4).

[10] = CoA synthetase assay (DTNB), substrate propionate; type: biochemical; conditions: saturating substrate concentrations
Method: Two assays were used to measure ligase activity, one spectrophotometric and one using high-performance liquid chromatography (HPLC). A discontinuous assay was used to measure substrate-dependent disappearance of CoA at 75° C. The reaction mixture (600 μl) contained 100 mM MOPS-KOH (pH 7.9), 5 mM MgCl2, 2.5 mM ATP, 0.15 mM CoA, and purified enzyme. At each time point, 80 μl of reaction mixture was added to 80 μl cold 5,5′-dithiobis-(2-nitrobenzoic acid) (DTNB). A time point (0 min) was taken before heating. The reaction mixture was incubated for 2 min at 75° C., followed by addition of substrate. Additional time points were taken at 30, 60, 90, 120, and 180 sec after addition of substrate. Absorbance was measured at 412 nm to determine free CoA concentration, based on the concentration of 2-nitro-5-thiobenzoate dianion (NTB^2−) (ε412=14,150 M^−1 cm^−1) (Hawkins et al., 2011, ACS Catal. 1, 1043-1050, Riddles et al., 1983, Methods in Enzymology 91, 49-60). Enzymes were kinetically characterized by varying the concentration of the acyl-CoA substrate from 0.05 mM to 12 mM, while the other substrate concentrations were held constant. Measurements for specific activity were taken under saturating substrate concentrations (10 mM). Formation of the CoA ester was also confirmed using HPLC (Waters). […]

[11] = other: Msed_0406, 75° C., pH 7.9, 75.0 °C

In the case of “Metallosphaera sedula acetate/propionate synthetase Msed_1353 variant Msed_1353-G424 (Trp424 to Gly, W424G), SEQ ID NO:18 (Metallosphaera sedula DSM 5348; W424G)”, the Km (O=C(O)CCCO) is reported as 1130 µM, the Vmax (O=C(O)CCCO) is reported as 2.3 µmol/min/mg and the kcat (O=C(O)CCCO) is reported as 2.5 s⁻¹. It also gave a kcat/Km (O=C(O)CCCO) of 2180 M⁻¹ s⁻¹.

In the case of [HH] [hydrogen], the solubility [1] is given as 600 µM (≈ 1.21 µg/mL).

For “Metallosphaera sedula 4-hydroxybutyryl-CoA dehydratase Msed_1321, SEQ ID NO:15, recombinant (Metallosphaera sedula DSM 5348)”, the Km [2] was 150 µM, the Vmax [2] was 2.2 µmol/min/mg and the kcat [2] was 2.1 s⁻¹.

For O=O [oxygen], the solubility [1] is listed as 600 µM (≈ 19.2 µg/mL).

B1: Metallosphaera sedula acyl-CoA synthetase (4-hydroxybutyrate:CoA ligase) Msed_0406, SEQ ID NO:14, recombinant (Metallosphaera sedula DSM 5348) (protein)
chain: MVTVQDFFRKFIEFQNSPNEKSLQEIVKLVGQLDLRRFNWVRDVFEDIHVKERGSKTALIWRDINTGEEAKLSYHELSLMSNRVLSTLRKHGLKKGDVVYLMTKVHPMHWAVFLAVIKGGFVMVPSATNLTVAEMKYRFSDLKPSAIISDSLRASVMEEALGSLKVEKFLIDGKRETWNSLEDESSNAEPEDTRGEDVIINYFTSGTTGMPKRVIHTAVSYPVGSITTASIVGVRESDLHLNLSATGWAKFAWSSFFSPLLVGATVVGINYEGKLDTRRYLGEVENLGVTSFCAPPTAWRQFITLDLDQFRFERLRSVVSAGEPLNPEVIKIWKDKFNLTIRDFYGQTETTAMVGNFPFLKVKPGSMGKPHPLYDIRLLDDEGKEITKPYEVGHITVKLNPRPIGLFLGYSDEKKNMESFREGYYYTGDKAYFDEEGYFYFVGRGDDVIKTSDYRVGPFEVESALLEHPAVAEAAVVGVPDTVRWQLVKAYIVLKKGYMPSKELAEEIREKMKTLLSPYKVPRIIEFVDELPKTISGKIRRVELRKREEEKRKKGEVGQNEYVF
Work on B1 yielded a Km [3] of 810 µM, a Vmax [3] of 2.4 µmol/min/mg and a kcat [3] of 2.6 s⁻¹. For the same molecule, the kcat/Km [3] was 3200 M⁻¹ s⁻¹, the Km [4, 11] was 2000 µM and the Vmax [4, 11] was 1.7 µmol/min/mg. The kcat [4, 11] was 1.8 s⁻¹, the kcat/Km [4, 11] was 910 M⁻¹ s⁻¹ and the Km ([4]; other: Msed_0406, text) was 1900 µM. For the same molecule, the Km [5] was 740 µM, the Vmax [5] was 5.2 µmol/min/mg and the kcat [5] was 5.6 s⁻¹. The kcat/Km [5] was 7500 M⁻¹ s⁻¹, the Km [6] was 380 µM and the Vmax [6] was 15.1 µmol/min/mg. It also gave a kcat [6] of 16.2 s⁻¹, a kcat/Km [6] of 43000 M⁻¹ s⁻¹ and a Km [7] of 320 µM. The Vmax [7] was 7.9 µmol/min/mg, the kcat [7] was 8.4 s⁻¹ and the kcat/Km [7] was 26000 M⁻¹ s⁻¹. It also gave a Km [8] of 2030 µM, a Vmax [8] of 6 µmol/min/mg and a kcat [8] of 6.4 s⁻¹. For the same molecule, the kcat/Km [8] was 3200 M⁻¹ s⁻¹, the specific activity ([9]; 4HB, saturating substrate concentrations) was 1.8 µmol/min/mg and the “production of 4HB-CoA from 4HB and CoA” value ([9]; reversed-phase HPLC) was “confirmed”. The “rate of ligation of CoA to 4HB” value ([9]; substrate 4HB) was 1.69 µmol·min/mg and the specific activity [10] was 15.1 µmol/min/mg.
